Positions count from the first letter of the chain named. Names may count otherwise.
B1: M1IC-FES-1 (bispecific antibody, human IgG1, kappa)
chain: QVQLVESGGGVVQPGRSLRLSCAASGFTFSTYAMNWVRQAPGKGLEWVARIRSKYNNYATYYADSVKDRFTISRDDSKNTLYLQMNSLRAEDTAVYYCARHGNFGNSYVSWFAYWGQGTLVTVSSGGGGSGGGGSGGGGSQTVVTQEPSLTVSPGGTVTLTCRSSTGAVTTSNYANWVQQKPGQAPRGLIGGTNKRAPGVPARFSGSLLGGKAALTLSGVQPEDEAEYYCALWYSNLWVFGGGTKVEIKGGGGSDKTHTCPPCPAPEFEGGPSVFLFPPKPKDTLMISRTPEVTCVVVDVSHEDPEVKFNWYVDGVEVHNAKTKPREEQYNSTYRVVSVLTVLHQDWLNGKEYKCKVSNKALPASIEKTISKAKGQPREPQVCTLPPSRDELTKNQVSLSCAVKGFYPSDIAVEWESNGQPENNYKTTPPVLDSDGSFFLVSKLTVDKSRWQQGNVFSCSVMHEALHNHYTQKSLSLSPGK
heavy: EVKLDETGGGLVQPGRPMKLSCVASGFTFSDYWMNWVRQSPEKGLEWVAQIRNKPYNYETYYSDSVKGRFTISRDDSKSSVYLQMNNLRVEDMGIYYCTGSYYGMDYWGQGTSVTVSSASTKGPSVFPLAPSSKSTSGGTAALGCLVKDYFPEPVTVSWNSGALTSGVHTFPAVLQSSGLYSLSSVVTVPSSSLGTQTYICNVNHKPSNTKVDKKVEPKSCDKTHTCPPCPAPEFEGGPSVFLFPPKPKDTLMISRTPEVTCVVVDVSHEDPEVKFNWYVDGVEVHNAKTKPREEQYNSTYRVVSVLTVLHQDWLNGKEYKCKVSNKALPASIEKTISKAKGQPREPQVYTLPPCRDELTKNQVSLWCLVKGFYPSDIAVEWESNGQPENNYKTTPPVLDSDGSFFLYSKLTVDKSRWQQGNVFSCSVMHEALHNHYTQKSLSLSPGK
light: DVVMTQTPLSLPVSLGDQASISCRSSQSLVHSNGNTYLRWYLQKPGQSPKVLIYKVSNRFSGVPDRFSGSGSGTDFTLKISRVEAEDLGVYFCSQSTHVPWTFGGGTKLEIKRTVAAPSVFIFPPSDEQLKSGTASVVCLLNNFYPREAKVQWKVDNALQSGNSQESVTEQDSKDSTYSLSSTLTLSKADYEKHKVYACEVTHQGLSSPVTKSFNRGEC
notes: structure 1 isotype control; CH2 FES; also called MlIC-FES-1
B2: M1IC-G2-1 (bispecific antibody, human IgG1, kappa)
chain: QVQLVESGGGVVQPGRSLRLSCAASGFTFSTYAMNWVRQAPGKGLEWVARIRSKYNNYATYYADSVKDRFTISRDDSKNTLYLQMNSLRAEDTAVYYCARHGNFGNSYVSWFAYWGQGTLVTVSSGGGGSGGGGSGGGGSQTVVTQEPSLTVSPGGTVTLTCRSSTGAVTTSNYANWVQQKPGQAPRGLIGGTNKRAPGVPARFSGSLLGGKAALTLSGVQPEDEAEYYCALWYSNLWVFGGGTKVEIKGGGGSDKTHTCPPCPAPPVAGPSVFLFPPKPKDTLMISRTPEVTCVVVDVSHEDPEVQFNWYVDGVEVHNAKTKPREEQFNSTFRVVSVLTVVHQDWLNGKEYKCKVSNKGLPAPIEKTISKTKGQPREPQVCTLPPSRDELTKNQVSLSCAVKGFYPSDIAVEWESNGQPENNYKTTPPVLDSDGSFFLVSKLTVDKSRWQQGNVFSCSVMHEALHNHYTQKSLSLSPGK
heavy: EVKLDETGGGLVQPGRPMKLSCVASGFTFSDYWMNWVRQSPEKGLEWVAQIRNKPYNYETYYSDSVKGRFTISRDDSKSSVYLQMNNLRVEDMGIYYCTGSYYGMDYWGQGTSVTVSSASTKGPSVFPLAPSSKSTSGGTAALGCLVKDYFPEPVTVSWNSGALTSGVHTFPAVLQSSGLYSLSSVVTVPSSSLGTQTYICNVNHKPSNTKVDKKVEPKSCDKTHTCPPCPAPPVAGPSVFLFPPKPKDTLMISRTPEVTCVVVDVSHEDPEVQFNWYVDGVEVHNAKTKPREEQFNSTFRVVSVLTVVHQDWLNGKEYKCKVSNKGLPAPIEKTISKTKGQPREPQVYTLPPCRDELTKNQVSLWCLVKGFYPSDIAVEWESNGQPENNYKTTPPVLDSDGSFFLYSKLTVDKSRWQQGNVFSCSVMHEALHNHYTQKSLSLSPGK
light: B1 light
notes: structure 1 isotype control; CH2 G2CH2
B3: M1IC-PG2-1 (bispecific antibody, human IgG1, kappa)
chain: B2 chain with C263P
heavy: B2 heavy with C230P
light: B1 light
notes: structure 1 isotype control; CH2 PG2CH2
B4: M1IC-G2D-1 (bispecific antibody, human IgG1, kappa)
chain: B2 chain with D303A
heavy: B2 heavy with D270A
light: B1 light
notes: structure 1 isotype control; CH2 G2DCH2
B5: M1IC-DG2-1 (bispecific antibody, human IgG1, kappa)
chain: B2 chain with D298A
heavy: B2 heavy with D265A
light: B1 light
notes: structure 1 isotype control; CH2 DG2CH2; also called MlIC-DG2-1
B6: PDL1-M1-LALA (bispecific antibody)
chain: B1 chain with G250R, G252R, F268A, E269A, S365P
heavy: not shown
light: not shown
notes: structure 1; PD-L1 x CD3; CH2 LALA
B7: M1IC-AG2-1 (bispecific antibody, human IgG1, kappa)
chain: B2 chain with C263A
heavy: B2 heavy with C230A
light: B1 light
notes: structure 1 isotype control; CH2 AG2CH2
B8: PDL1-M1-FES (bispecific antibody)
chain: B1 chain with G250R, G252R
heavy: not shown
light: not shown
notes: structure 1; PD-L1 x CD3; CH2 FES
B9: M1IC-GG2-1 (bispecific antibody, human IgG1, kappa)
chain: B2 chain with C263G
heavy: B2 heavy with C230G
light: B1 light
notes: structure 1 isotype control; CH2 GG2CH2
B10: M1IC-DG2D-1 (bispecific antibody, human IgG1, kappa)
chain: B2 chain with D298A, D303A
heavy: B2 heavy with D265A, D270A
light: B1 light
notes: structure 1 isotype control; CH2 DG2DCH2
B11: M1IC-SG2-1 (bispecific antibody, human IgG1, kappa)
chain: B2 chain with C263S
heavy: B2 heavy with C230S
light: B1 light
notes: structure 1 isotype control; CH2 SG2CH2
B12: M1IC-NQ (bispecific antibody, human IgG1, kappa, N297Q)
chain: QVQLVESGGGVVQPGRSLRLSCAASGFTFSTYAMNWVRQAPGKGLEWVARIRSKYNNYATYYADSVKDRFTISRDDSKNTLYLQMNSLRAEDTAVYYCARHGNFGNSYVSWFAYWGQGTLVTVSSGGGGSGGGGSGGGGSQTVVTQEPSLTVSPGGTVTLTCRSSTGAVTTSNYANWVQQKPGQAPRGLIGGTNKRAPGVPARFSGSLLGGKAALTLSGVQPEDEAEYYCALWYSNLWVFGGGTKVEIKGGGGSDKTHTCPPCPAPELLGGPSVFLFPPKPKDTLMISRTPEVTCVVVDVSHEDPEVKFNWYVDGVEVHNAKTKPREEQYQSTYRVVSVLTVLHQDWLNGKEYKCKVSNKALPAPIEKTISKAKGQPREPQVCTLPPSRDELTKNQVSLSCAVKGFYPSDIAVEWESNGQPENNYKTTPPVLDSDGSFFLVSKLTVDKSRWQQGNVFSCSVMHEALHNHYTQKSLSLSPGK
heavy: B1 heavy with F235L, E236L, N298Q, S332P
light: B1 light
notes: structure 1 isotype control; CH2 N297Q
B13: PDL1-M1-G2 (bispecific antibody)
chain: B2 chain with G250R, G252R
heavy: not shown
light: not shown
notes: structure 1; PD-L1 x CD3; CH2 G2CH2
B14: PDL1-M1-SG2 (bispecific antibody)
chain: B2 chain with G250R, G252R, C263S
heavy: not shown
light: not shown
notes: structure 1; PD-L1 x CD3; CH2 SG2CH2

These binders were tested against T1, Human CD3ε (human, UniProt P07766 23-126) (assay: flow cytometry, human T cells).
T1 construct: CD3 on T cells isolated from human whole blood
Text: 1) Cell preparation: T cells isolated from CD3-positive human whole blood were used for a CD3 end affinity detection of multifunctional antibody molecule; positive tumor cells of corresponding antigen were used for detecting affinity of tumor antigen; for example, CD38-positive MM. 1S cells (purchased from the Cell Resource Center of Shanghai Institutes for Biological Sciences, Chinese Academy of Sciences) or RPMI 8226 cells (purchased from the Cell Resource Center of Shanghai Institutes for Biological Sciences, Chinese Academy of Sciences) were used for CD38 antigen detection, and PD-L1 positive H358 cells (purchased from the Cell Resource Center of Shanghai Institutes for Biological Sciences, Chinese Academy of Sciences) were used for PD-L1 antigen detection, and so on. The cells were resuspended with 1% FBS-PBS, adjusted to a density of 4×10⁶/ml, and 50 μl of cells were taken from each well, and then plated at 2×10⁵ per well. Cell plating was operated on ice
2) Addition of the antibody: according to the experimental design, the antibody was diluted gradually, and dilution of antibody was operated on ice. For example, the initial concentration of antibody for dilution was 3000 nM, and the antibody was diluted by 3 times with 11 concentration gradients. The diluted antibody was added to a cell well at 50 μl per well, mixed well, and shaked and incubated at 4° C. 1100 rpm/min for 2 h; after washing, the cells were resuspend in 1% FBS-PBS, and a diluted secondary antibody PE anti-human IgG FC (Biolegend, 409304) was added with a final concentration of 8 ug/ml and a volume of 50 μl/well. At the same time, a well only added with cells and secondary antibody was set as a control, the components were mixed well, and incubated under shaking at 1100 rpm/min at 4° C. for 1 h;
5) Data analysis: the data was analyzed by a flow analysis software FlowJo 7.6 thereby obtaining an average fluorescence intensity of the specific antibody concentration, plotted by a Graphpad Prism 5 with the antibody concentration (nM) as an abscissa and the average fluorescence intensity as an ordinate; the EC50 value was calculated by the method of One site—Specific binding, and the EC50 value indicated the cell affinity of the antibody to the corresponding target antigen.
In the case of B1, the EC50 is reported as 170 nM.
B2 was tested, and the EC50 was 127 nM.
B3 was tested, and the EC50 was 116 nM.
In the case of B4, the EC50 is reported as 101 nM.
B5 showed an EC50 of 120 nM.
In the case of B6, the EC50 is reported as 153 nM.
With B7 the EC50 was 163 nM.
B8 gave an EC50 of 200 nM.
B9 showed an EC50 of 168 nM.
B10 gave an EC50 of 128 nM.
Binder B11 has an EC50 of 122 nM.
Binder B12 has an EC50 of 194 nM.
B13 gave an EC50 of 191 nM.
With B14 the EC50 was 177 nM.

What follows are binders tested against T2, Monkey CD3 (monkey) (assay: flow cytometry, monkey T cells).
T2 construct: whole, on cells; also called CD3 of monkey CD3 positive T cells
Work on B1 yielded an EC50 of 295 nM.
Work on B2 yielded an EC50 of 165 nM.
B3 was tested, and the EC50 was 146 nM.
B4 gave an EC50 of 143 nM.
B5 showed an EC50 of 130 nM.
In the case of B6, the EC50 is reported as 196 nM.
B7 gave an EC50 of 197 nM.
For B8, the EC50 was 207 nM.
In the case of B9, the EC50 is reported as 166 nM.
Work on B10 yielded an EC50 of 181 nM.
B11 was tested, and the EC50 was 222 nM.
In the case of B12, the EC50 is reported as 378 nM.
B13 was tested, and the EC50 was 239 nM.
In the case of B14, the EC50 is reported as 194 nM.
